Patent EP0723402B1

Target: cyclin/cdk2 complexes immunoprecipitated from HeLa cell extracts by cdk2 antisera (UniProt P24941)
Test: cell-based or functional assay

half maximal inhibition of histone H1 kinase activity: 250 ng
Substance: GST-SDI-1 fusion protein (Schistosoma japonicum glutathione S-transferase amino acids 1-226, hinge Pro-Arg-Gly-Asp-Pro-Pro-Ala, SDI-1)
